Data from paper PMC2881571 (Molecular microbiology, 2009).
Where two headings read alike, the source gives them in different places.

T1: 6His-OspR (Pseudomonas aeruginosa MPAO1, UniProt Q9I018 1-163)
T1 sequence: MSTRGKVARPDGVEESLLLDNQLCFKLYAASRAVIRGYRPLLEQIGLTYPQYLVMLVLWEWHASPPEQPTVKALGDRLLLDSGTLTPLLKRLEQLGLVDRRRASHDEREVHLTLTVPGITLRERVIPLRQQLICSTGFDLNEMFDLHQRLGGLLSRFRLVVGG

T2: 6His-OspR C24S (Pseudomonas aeruginosa MPAO1, UniProt Q9I018 1-163, C24S)
T2 sequence: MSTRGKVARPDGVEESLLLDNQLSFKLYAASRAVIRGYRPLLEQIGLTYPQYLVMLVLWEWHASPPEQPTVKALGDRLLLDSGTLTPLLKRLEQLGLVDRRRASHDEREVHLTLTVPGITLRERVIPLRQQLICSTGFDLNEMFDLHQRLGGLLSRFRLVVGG


Legend:
6His-OspR [1] = molecular target: T1, 6His-OspR; test: EMSA
cross-linking = molecular target: the molecule itself; test: cross-linking
6His-OspR [2] = molecular target: T1, 6His-OspR; test: EMSA; remark: listed apart in the source
6His-OspR C24S = molecular target: T2, 6His-OspR C24S; test: EMSA

Binder | binding result (6His-OspR [1]) | further results
B2d (B2 lacking AATTnAATT, 34 bp) (dsDNA) DNA 1: TTCAATCAAGTTGTGTGCGCGAGCTACTTTATTT DNA 2: AAATAAAGTAGCTCGCGCACACAACTTGATTGAA | no binding | 
PA1897-p (70 bp) (dsDNA) DNA 1: GGCAGGTTGTCCCTGCCGGGCTGTGACAATTTAATTCGACCAGGCATTTCATTGTCCGTGCCGATTTTCA DNA 2: TGAAAATCGGCACGGACAATGAAATGCCTGGTCGAATTAAATTGTCACAGCCCGGCAGGGACAACCTGCC | binds | 
6His-OspR C24S (natural protein, Pseudomonas aeruginosa MPAO1, UniProt Q9I018 1-163, looked up) MSTRGKVARPDGVEESLLLDNQLSFKLYAASRAVIRGYRPLLEQIGLTYPQYLVMLVLWEWHASPPEQPTVKALGDRLLLDSGTLTPLLKRLEQLGLVDRRRASHDEREVHLTLTVPGITLRERVIPLRQQLICSTGFDLNEMFDLHQRLGGLLSRFRLVVGG |  | binding result (cross-linking): binds
hmgA-p (PA2009-PA2010 intergenic, 70 bp) (dsDNA) DNA 1: TGGCACGCTGGCTGCGTTATTTTTATCGTAATTCAATTACGCATAACGTAATTTGAGTGGAAGGCAGCGT DNA 2: ACGCTGCCTTCCACTCAAATTACGTTATGCGTAATTGAATTACGATAAAAATAACGCAGCCAGCGTGCCA | binds | 
B2 (PA2826 promoter, 43 bp) (dsDNA) DNA 1: TTCAATCAAGTTGTGTGCAATTGAATTGCGAGCTACTTTATTT DNA 2: AAATAAAGTAGCTCGCAATTCAATTGCACACAACTTGATTGAA |  | binding result (6His-OspR [2]): binds; binding result (6His-OspR C24S): binds
